{"source": "ChEMBL document CHEMBL3525932", "about": "“Comparison of metabolism of sesamin and episesamin by drug-metabolizing enzymes in human liver” (Drug Metab Dispos, 2012)", "key": {"[1]": {"substrate": "[H][C@]12CO[C@@H](c3ccc(O)c(O)c3)[C@@]1([H])CO[C@@H]2c1ccc2c(c1)OCO2", "test": "(§1) Activity of recombinant human CYP2C19 expressed in Saccharomyces cerevisiae AH22 cells assessed as enzyme-mediated episesamin dicatechol formation after 15 mins by HPLC analysis in presence of NADPH", "assay_type": "ADME, cell-based"}, "[2]": {"substrate": "[H][C@]12CO[C@@H](c3ccc4c(c3)OCO4)[C@@]1([H])CO[C@@H]2c1ccc(O)c(O)c1", "test": "as §1", "assay_type": "ADME, cell-based"}, "[3]": {"substrate": "[H][C@]12CO[C@H](c3ccc4c(c3)OCO4)[C@@]1([H])CO[C@@H]2c1ccc(O)c(O)c1", "test": "Activity of recombinant human CYP2C19 expressed in Saccharomyces cerevisiae AH22 cells assessed as enzyme-mediated sesamin dicatechol formation after 15 mins by HPLC analysis in presence of NADPH", "assay_type": "ADME, cell-based"}, "[4]": {"substrate": "[H][C@]12CO[C@H](c3ccc4c(c3)OCO4)[C@@]1([H])CO[C@@H]2c1ccc(O)c(O)c1", "test": "(§2) Drug metabolism in Sprague-Dawley rat liver cytosol assessed as COMT-mediated methylation after 10 to 30 mins by HPLC analysis in presence of SAM", "assay_type": "ADME"}, "[5]": {"substrate": "[H][C@]12CO[C@@H](c3ccc(O)c(O)c3)[C@@]1([H])CO[C@@H]2c1ccc2c(c1)OCO2", "test": "as §2", "assay_type": "ADME"}, "[6]": {"substrate": "[H][C@]12CO[C@@H](c3ccc4c(c3)OCO4)[C@@]1([H])CO[C@@H]2c1ccc(O)c(O)c1", "test": "as §2", "assay_type": "ADME"}, "[7]": {"substrate": "[H][C@]12CO[C@H](c3ccc4c(c3)OCO4)[C@@]1([H])CO[C@@H]2c1ccc(O)c(O)c1", "test": "(§3) Drug metabolism in human liver cytosol assessed as COMT-mediated methylation after 10 to 30 mins by HPLC analysis in presence of SAM", "assay_type": "ADME"}, "[8]": {"substrate": "[H][C@]12CO[C@@H](c3ccc(O)c(O)c3)[C@@]1([H])CO[C@@H]2c1ccc2c(c1)OCO2", "test": "as §3", "assay_type": "ADME"}, "[9]": {"substrate": "[H][C@]12CO[C@@H](c3ccc4c(c3)OCO4)[C@@]1([H])CO[C@@H]2c1ccc(O)c(O)c1", "test": "as §3", "assay_type": "ADME"}, "[10]": {"substrate": "c1cc2c(cc1[C@H]1OC[C@H]3[C@@H]1CO[C@@H]3c1ccc3c(c1)OCO3)OCO2", "test": "Activity of recombinant human CYP1A2 expressed in Saccharomyces cerevisiae AH22 cells assessed as enzyme-mediated sesamin monocatecholization after 15 mins by Michaelis-Menten plot analysis in presence of NADPH", "assay_type": "ADME, cell-based"}, "[11]": {"substrate": "c1cc2c(cc1[C@H]1OC[C@H]3[C@@H]1CO[C@@H]3c1ccc3c(c1)OCO3)OCO2", "test": "Activity of recombinant human CYP2C9 expressed in Saccharomyces cerevisiae AH22 cells assessed as enzyme-mediated sesamin monocatecholization after 15 mins by Michaelis-Menten plot analysis in presence of NADPH", "assay_type": "ADME, cell-based"}}}
{"protein": "Cytochrome P450 2C19 (Homo sapiens) (protein) MDPFVVLVLCLSCLLLLSIWRQSSGRGKLPPGPTPLPVIGNILQIDIKDVSKSLTNLSKIYGPVFTLYFGLERMVVLHGYEVVKEALIDLGEEFSGRGHFPLAERANRGFGIVFSNGKRWKEIRRFSLMTLRNFGMGKRSIEDRVQEEARCLVEELRKTKASPCDPTFILGCAPCNVICSIIFQKRFDYKDQQFLNLMEKLNENIRIVSTPWIQICNNFPTIIDYFPGTHNKLLKNLAFMESDILEKVKEHQESMDINNPRDFIDCFLIKMEKEKQNQQSEFTIENLVITAADLLGAGTETTSTTLRYALLLLLKHPEVTAKVQEEIERVIGRNRSPCMQDRGHMPYTDAVVHEVQRYIDLIPTSLPHAVTCDVKFRNYLIPKGTTILTSLTSVLHDNKEFPNPEMFDPRHFLDEGGNFKKSNYFMPFSAGKRICVGEGLARMELFLFLTFILQNFNLKSLIDPKDLDTTPVVNGFASVPPFYQLCFIPV", "values": [{"measurement": "Km", "setting": "[1]", "result": 7.3, "unit": "µM"}, {"measurement": "kcat", "setting": "[1]", "result": 0.25, "unit": "s⁻¹"}, {"measurement": "Km", "setting": "[2]", "result": 7.3, "unit": "µM"}, {"measurement": "kcat", "setting": "[2]", "result": 0.25, "unit": "s⁻¹"}, {"measurement": "Km", "setting": "[3]", "result": 5.1, "unit": "µM"}, {"measurement": "kcat", "setting": "[3]", "result": 0.233, "unit": "s⁻¹"}]}
{"protein": "Catechol O-methyltransferase (Rattus norvegicus) (protein) MPLAAVSLGLLLLALLLLLRHLGWGLVTIFWFEYVLQPVHNLIMGDTKEQRILRYVQQNAKPGDPQSVLEAIDTYCTQKEWAMNVGDAKGQIMDAVIREYSPSLVLELGAYCGYSAVRMARLLQPGARLLTMEMNPDYAAITQQMLNFAGLQDKVTILNGASQDLIPQLKKKYDVDTLDMVFLDHWKDRYLPDTLLLEKCGLLRKGTVLLADNVIVPGTPDFLAYVRGSSSFECTHYSSYLEYMKVVDGLEKAIYQGPSSPDKS", "values": [{"measurement": "Km", "setting": "[4]", "result": 9.2, "unit": "µM"}, {"measurement": "Vmax", "setting": "[4]", "result": 0.0033, "unit": "µmol/min"}, {"measurement": "Km", "setting": "[5]", "result": 5.5, "unit": "µM"}, {"measurement": "Vmax", "setting": "[5]", "result": 0.0024, "unit": "µmol/min"}, {"measurement": "Km", "setting": "[6]", "result": 7.7, "unit": "µM"}, {"measurement": "Vmax", "setting": "[6]", "result": 0.0032, "unit": "µmol/min"}]}
{"protein": "Catechol O-methyltransferase (Homo sapiens) (protein) MPEAPPLLLAAVLLGLVLLVVLLLLLRHWGWGLCLIGWNEFILQPIHNLLMGDTKEQRILNHVLQHAEPGNAQSVLEAIDTYCEQKEWAMNVGDKKGKIVDAVIQEHQPSVLLELGAYCGYSAVRMARLLSPGARLITIEINPDCAAITQRMVDFAGVKDKVTLVVGASQDIIPQLKKKYDVDTLDMVFLDHWKDRYLPDTLLLEECGLLRKGTVLLADNVICPGAPDFLAHVRGSSCFECTHYQSFLEYREVVDGLEKAIYKGPGSEAGP", "values": [{"measurement": "Km", "setting": "[7]", "result": 5.6, "unit": "µM"}, {"measurement": "Vmax", "setting": "[7]", "result": 0.0013, "unit": "µmol/min"}, {"measurement": "Km", "setting": "[8]", "result": 2.5, "unit": "µM"}, {"measurement": "Vmax", "setting": "[8]", "result": 0.00071, "unit": "µmol/min"}, {"measurement": "Km", "setting": "[9]", "result": 2.4, "unit": "µM"}, {"measurement": "Vmax", "setting": "[9]", "result": 0.00059, "unit": "µmol/min"}]}
{"protein": "Cytochrome P450 1A2 (Homo sapiens) (protein) MALSQSVPFSATELLLASAIFCLVFWVLKGLRPRVPKGLKSPPEPWGWPLLGHVLTLGKNPHLALSRMSQRYGDVLQIRIGSTPVLVLSRLDTIRQALVRQGDDFKGRPDLYTSTLITDGQSLTFSTDSGPVWAARRRLAQNALNTFSIASDPASSSSCYLEEHVSKEAKALISRLQELMAGPGHFDPYNQVVVSVANVIGAMCFGQHFPESSDEMLSLVKNTHEFVETASSGNPLDFFPILRYLPNPALQRFKAFNQRFLWFLQKTVQEHYQDFDKNSVRDITGALFKHSKKGPRASGNLIPQEKIVNLVNDIFGAGFDTVTTAISWSLMYLVTKPEIQRKIQKELDTVIGRERRPRLSDRPQLPYLEAFILETFRHSSFLPFTIPHSTTRDTTLNGFYIPKKCCVFVNQWQVNHDPELWEDPSEFRPERFLTADGTAINKPLSEKMMLFGMGKRRCIGEVLAKWEIFLFLAILLQQLEFSVPPGVKVDLTPIYGLTMKHARCEHVQARLRFSIN", "values": [{"measurement": "Km", "setting": "[10]", "result": 15, "unit": "µM"}, {"measurement": "kcat", "setting": "[10]", "result": 0.0833, "unit": "s⁻¹"}, {"measurement": "kcat/Km", "setting": "[10]", "result": 5500, "unit": "M⁻¹ s⁻¹"}]}
{"protein": "Cytochrome P450 2C9 (Homo sapiens) (protein) MDSLVVLVLCLSCLLLLSLWRQSSGRGKLPPGPTPLPVIGNILQIGIKDISKSLTNLSKVYGPVFTLYFGLKPIVVLHGYEAVKEALIDLGEEFSGRGIFPLAERANRGFGIVFSNGKKWKEIRRFSLMTLRNFGMGKRSIEDRVQEEARCLVEELRKTKASPCDPTFILGCAPCNVICSIIFHKRFDYKDQQFLNLMEKLNENIKILSSPWIQICNNFSPIIDYFPGTHNKLLKNVAFMKSYILEKVKEHQESMDMNNPQDFIDCFLMKMEKEKHNQPSEFTIESLENTAVDLFGAGTETTSTTLRYALLLLLKHPEVTAKVQEEIERVIGRNRSPCMQDRSHMPYTDAVVHEVQRYIDLLPTSLPHAVTCDIKFRNYLIPKGTTILISLTSVLHDNKEFPNPEMFDPHHFLDEGGNFKKSKYFMPFSAGKRICVGEALAGMELFLFLTSILQNFNLKSLVDPKNLDTTPVVNGFASVPPFYQLCFIPV", "values": [{"measurement": "Km", "setting": "[11]", "result": 5.4, "unit": "µM"}, {"measurement": "kcat", "setting": "[11]", "result": 0.0517, "unit": "s⁻¹"}, {"measurement": "kcat/Km", "setting": "[11]", "result": 9500, "unit": "M⁻¹ s⁻¹"}]}
